From patent US20250109178A1 (published 2025)
Like-named read-outs stand apart in the source and are kept apart here.

Key:
Experiment in all cases: ELISA
[1] = target: T1, Fc-NKG2D.wt (natural human NKG2D ectodomain fused to the C-terminus of human IgG1 Fc)
[2] = target: T1, Fc-NKG2D.wt (natural human NKG2D …); remark: listed apart in the source
[3] = target: T1, Fc-NKG2D.wt (natural human NKG2D …); remark: listed apart in the source
[4] = target: eNKG2D3 T|Y
[5] = target: eNKG2D4 V|Y
[6] = target: eNKG2D2 S|Y
[7] = target: eNKG2D14 L|Y

B1: rituximab-ULBP2.S3 MicAbody (bispecific antibody)
heavy: not shown
light: QIVLSQSPAILSASPGEKVTMTCRASSSVSYIHWFQQKPGSSPKPWIYATSNLASGVPVRFSGSGSGTSYSLTISRVEAEDAATYYCQQWTSNPPTFGGGTKLEIKRTVAAPSVFIFPPSDEQLKSGTASVVCLLNNFYPREAKVQWKVDNALQSGNSQESVTEQDSKDSTYSLSSTLTLSKADYEKHKVYACEVTHQGLSSPVTKSFNRGECAPTSSSGGGGSEPHSLSYDITVIPKFRPGPRWCAVQGQVDEKTFLHYDCGNKTVTPVSPLGKKLNVTTAWKAQNPVLREVVDILTEQLWDIQLENYTPKEPLTLQARMSCEQKAEGHSSGSWQFSFDGQIFLLFDSEKRMWTTVHPGARKMKEKWENDKVVATKLYLWSMGDCIGWLEDFLMGMDSTLEPS
EC50 [1]: 52.7 nM

B2: rituximab-ULBP2.AA MicAbody (bispecific antibody)
heavy: not shown
light: QIVLSQSPAILSASPGEKVTMTCRASSSVSYIHWFQQKPGSSPKPWIYATSNLASGVPVRFSGSGSGTSYSLTISRVEAEDAATYYCQQWTSNPPTFGGGTKLEIKTVAAPSVFIFPPSDEQLKSGTASVVCLLNNFYPREAKVQWKVDNALQSGNSQESVTEQDSKDSTYSLSSTLTLSKADYEKHKVYACEVTHQGLSSPVTKSFNRGECAPTSSSGGGGSEPHSLSYDITVIPKFRPGPRWCAVQGQVDEKTFLHYDCGNKTVTPVSPLGKKLNVTTAWKAQNPVLREVVDILTEQLWDIQLENYTPKEPLTLQARMSCEQKAEGHSSGSWQFSFDGQIFLLFDSEKRMWTTVHPGARKMKEKWENDKVVATMFWSWSMGDCIGWLEDFLMGMDSTLEPS
EC50 [2]: 655 nM

B3: rituximab-ULBP2.C MicAbody (bispecific antibody)
heavy: not shown
light: QIVLSQSPAILSASPGEKVTMTCRASSSVSYIHWFQQKPGSSPKPWIYATSNLASGVPVRFSGSGSGTSYSLTISRVEAEDAATYYCQQWTSNPPTFGGGTKLEIKTVAAPSVFIFPPSDEQLKSGTASVVCLLNNFYPREAKVQWKVDNALQSGNSQESVTEQDSKDSTYSLSSTLTLSKADYEKHKVYACEVTHQGLSSPVTKSFNRGECAPTSSSGGGGSEPHSLSYDITVIPKFRPGPRWCAVQGQVDEKTFLHYDCGNKTVTPVSPLGKKLNVTTAWKAQNPVLREVVDILTEQLWDIQLENYTPKEPLTLQARMSCEQKAEGHSSGSWQFSFDGQIFLLFDSEKRMWTTVHPGARKMKEKWENDKVVATILWQTSMGDCIGWLEDFLMGMDSTLEPS
EC50 [2]: 130 nM

B4: rituximab-ULBP2.AB MicAbody (bispecific antibody)
heavy: not shown
light: QIVLSQSPAILSASPGEKVTMTCRASSSVSYIHWFQQKPGSSPKPWIYATSNLASGVPVRFSGSGSGTSYSLTISRVEAEDAATYYCQQWTSNPPTFGGGTKLEIKTVAAPSVFIFPPSDEQLKSGTASVVCLLNNFYPREAKVQWKVDNALQSGNSQESVTEQDSKDSTYSLSSTLTLSKADYEKHKVYACEVTHQGLSSPVTKSFNRGECAPTSSSGGGGSEPHSLSYDITVIPKFRPGPRWCAVQGQVDEKTFLHYDCGNKTVTPVSPLGKKLNVTTAWKAQNPVLREVVDILTEQLWDIQLENYTPKEPLTLQARMSCEQKAEGHSSGSWQFSFDGQIFLLFDSEKRMWTTVHPGARKMKEKWENDKVVATLMWQWSMGDCIGWLEDFLMGMDSTLEPS
EC50 [2]: 389 nM

B5: ULBP2.wt rituximab-MicAbody (bispecific antibody)
heavy: not shown
light: QIVLSQSPAILSASPGEKVTMTCRASSSVSYIHWFQQKPGSSPKPWIYATSNLASGVPVRFSGSGSGTSYSLTISRVEAEDAATYYCQQWTSNPPTFGGGTKLEIKRTVAAPSVFIFPPSDEQLKSGTASVVCLLNNFYPREAKVQWKVDNALQSGNSQESVTEQDSKDSTYSLSSTLTLSKADYEKHKVYACEVTHQGLSSPVTKSFNRGECAPTSSSGGGGSEPHSLSYDITVIPKFRPGPRWCAVQGQVDEKTFLHYDCGNKTVTPVSPLGKKLNVTTAWKAQNPVLREVVDILTEQLRDIQLENYTPKEPLTLQARMSCEQKAEGHSSGSWQFSFDGQIFLLFDSEKRMWTTVHPGARKMKEKWENDKVVAMSFHYFSMGDCIGWLEDFLMGMDSTLEPS
EC50 [1]: 1.02 nM | EC50 [3]: 1.41 nM

B6: ULBP2.wt (bispecific antibody)
heavy: not shown
light: QIVLSQSPAILSASPGEKVTMTCRASSSVSYIHWFQQKPGSSPKPWIYATSNLASGVPVRFSGSGSGTSYSLTISRVEAEDAATYYCQQWTSNPPTFGGGTKLEIKRTVAAPSVFIFPPSDEQLKSGTASVVCLLNNFYPREAKVQWKVDNALQSGNSQESVTEQDSKDSTYSLSSTLTLSKADYEKHKVYACEVTHQGLSSPVTKSFNRGECAPTSSSGGGGSEPHSLSYDITVIPKFRPGPRWCAVQGQVDEKTFLHYDCGNKTVTPVSPLGKKLNVTTAWKAQNPVLREVVDILTEQLRDIQLENYTPKEPLTLQARMSCEQKAEGHSSGSWQFSFDGQIFLLFDSEKRMWTTVHPGARKMKEKWENDKVVAMSFHYFSMGDCIGWLEDFLMGMDSTLEPS
EC50 [4]: 31.1 nM | EC50 [5]: 35.8 nM | EC50 [6]: 34.8 nM | EC50 [7]: 87.6 nM
